{"source": "paper PMC7812869", "target": "80S-like ribosomes (yeast | yeast (endogenous in the yeast strain)) (UniProt Q07381)", "sequence (Q07381 whole entry, looked up)": "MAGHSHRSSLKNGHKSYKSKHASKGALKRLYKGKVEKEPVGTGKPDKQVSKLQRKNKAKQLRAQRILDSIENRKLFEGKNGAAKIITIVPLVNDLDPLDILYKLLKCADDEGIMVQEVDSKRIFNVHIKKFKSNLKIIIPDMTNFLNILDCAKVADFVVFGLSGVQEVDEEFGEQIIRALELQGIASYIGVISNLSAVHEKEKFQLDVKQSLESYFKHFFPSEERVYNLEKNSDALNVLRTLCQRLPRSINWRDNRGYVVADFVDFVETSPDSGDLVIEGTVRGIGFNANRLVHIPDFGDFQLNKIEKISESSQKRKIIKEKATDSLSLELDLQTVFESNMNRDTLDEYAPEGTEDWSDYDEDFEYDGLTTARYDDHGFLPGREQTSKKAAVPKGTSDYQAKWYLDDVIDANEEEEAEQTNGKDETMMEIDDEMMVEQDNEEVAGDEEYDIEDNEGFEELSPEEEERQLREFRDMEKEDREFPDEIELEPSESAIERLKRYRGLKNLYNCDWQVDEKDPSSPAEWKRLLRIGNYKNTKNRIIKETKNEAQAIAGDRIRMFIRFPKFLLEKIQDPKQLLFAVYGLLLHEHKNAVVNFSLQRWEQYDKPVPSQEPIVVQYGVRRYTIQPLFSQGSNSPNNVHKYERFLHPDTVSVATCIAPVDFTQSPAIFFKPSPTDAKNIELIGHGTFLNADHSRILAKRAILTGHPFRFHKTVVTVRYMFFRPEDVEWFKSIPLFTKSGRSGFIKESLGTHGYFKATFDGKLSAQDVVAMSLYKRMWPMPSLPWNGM", "test": "co-sedimentation", "note": "Several values for one entry are separate records, joined by “and”; a condition that tells them apart may be missing. Equal entries are not always repeated.", "data": [{"substance": "Fap7+SUMO-Rps14 complex (from UniProt Q12055 1-197)", "values": [{"measurement": "fold change of bound Fap7 against Fap7 alone", "value": "2 fold and 3 fold"}]}]}
